Data on two molecules can be found in publication PMC9909335, “Structure-guided design of a potent Clostridioides difficile toxin A inhibitor” (Frontiers in Microbiology, 2023).

In general, koff refers to the rate constant with which the complex falls apart. Low readings indicate a long-lived complex, high ones a short-lived complex. In general, EC50 refers to the concentration giving half of the maximal effect. Low readings indicate higher potency in that assay, high ones lower potency in that assay. The stoichiometry N is a count of units in the complex or per binding partner.

Holding throughout (conditions): both partners purified
In test [1] the target is T1, TcdA-A2 fragment (C-terminal CROPs domain fragment of TcdA, aa 2,556–2,710 of TcdA10463) (Clostridioides difficile; paper: …).
T1 construct: source: recombinant (Greco et al., 2006)
Description: SPR. On the technique in general: In SPR one partner is held on a chip, and binding of the other changes the refractive index at the surface.

The target of test [2] is T2, Clostridioides difficile toxin A (TcdA), full-length (Clostridioides difficile, strain of …, UniProt P16154).
T2 construct: also called full-length TcdA
Description: ELISA.

The target of test [3] is T1, TcdA-A2 fragment (C-terminal CROPs …). Nature of the test: SEC-MALS. For orientation: In gel filtration, larger molecules generally elute earlier.

B1: VHH A26 (A26.8) (VHH)
VHH: QVKLEESGGGLVQAGGSLRLSCAASERTFSRYPVAWFRQAPGAEREFVAVISSTGTSTYYADSVKGRFTISRDNAKVTVYLQMNNLKREDTAVYFCAVNSQRTRLQDPNEYDYWGQGTQVTVSS
Regarding B1, in test [1], the “T1/2 (SPR-calculated half-life, 0.693/kd)” value is 0.6 min and the dissociation rate constant (koff) came to 0.025 s⁻¹. In test [2], this molecule returned an EC50 of 14.6 nM. The “stoichiometry N” value in test [3] was 1 Ab per Ag (1:1).

B2: VHH A20 (A20.1) (VHH)
VHH: QVQLVESGGGLAQAGGSLRLSCAASGRTFSMDPMAWFRQPPGKEREFVAAGSSTGRTTYYADSVKGRFTISRDNAKNTVYLQMNSLKPEDTAVYYCAAAPYGANWYRDEYAYWGQGTQVTVSS
As for B2, in test [1], the “T1/2 (SPR-calculated half-life, 0.693/kd)” value is 1.8 min and the koff stood at 0.0075 s⁻¹. It took 0.194 ± 0.013 nM to reach a half-maximal effect in test [2] (EC50). In addition, the “stoichiometry N” value in test [3] is 1 Ab per Ag (1:1).
